Experimental data: publication PMC6930080

Target: ATP synthase subunit α (Euglena gracilis)
Test: cryo-EM structure; native ATP synthase dimer with bound IF1, co-purified as one complex from E. gracilis mitochondria; 25 mM HEPES/KOH pH 7.5, 25 mM KCl, 15 mM MgOAc2, 2 mM DTT, 0.05% β-DDM; maps: membrane region 2.82 Å, F1/c-ring rotational states 1-3 3.04, 3.14 and 3.92 Å, rotor 3.3 Å, peripheral stalk tip 3.82 Å, consensus dimer 4.32 Å

percent of particles of rotational state 3 that contain IF1: 34%
Substance: ATPase inhibitory factor 1 (IF1) (natural protein)
